In publication PMC2739136:

How the values were obtained:
Assay in all cases: pull-down
[1] = target: T1, MBP-TraR A150V, P33905
T1 chain: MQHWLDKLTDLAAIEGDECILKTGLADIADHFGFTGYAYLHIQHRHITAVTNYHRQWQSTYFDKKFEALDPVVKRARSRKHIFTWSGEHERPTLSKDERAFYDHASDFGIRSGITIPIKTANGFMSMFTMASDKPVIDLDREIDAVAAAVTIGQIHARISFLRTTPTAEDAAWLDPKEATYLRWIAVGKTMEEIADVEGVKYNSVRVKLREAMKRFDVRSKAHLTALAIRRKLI

[2] = target: T2, MBP-TraR G123R, P33905
T2 chain: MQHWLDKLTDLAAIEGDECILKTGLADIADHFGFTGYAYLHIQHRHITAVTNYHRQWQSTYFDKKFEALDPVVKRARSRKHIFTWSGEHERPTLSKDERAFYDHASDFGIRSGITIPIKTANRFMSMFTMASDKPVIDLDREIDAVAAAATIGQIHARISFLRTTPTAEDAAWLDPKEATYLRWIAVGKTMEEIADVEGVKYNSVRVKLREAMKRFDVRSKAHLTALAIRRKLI

[3] = target: T3, MBP-TraR G153A, P33905
T3 chain: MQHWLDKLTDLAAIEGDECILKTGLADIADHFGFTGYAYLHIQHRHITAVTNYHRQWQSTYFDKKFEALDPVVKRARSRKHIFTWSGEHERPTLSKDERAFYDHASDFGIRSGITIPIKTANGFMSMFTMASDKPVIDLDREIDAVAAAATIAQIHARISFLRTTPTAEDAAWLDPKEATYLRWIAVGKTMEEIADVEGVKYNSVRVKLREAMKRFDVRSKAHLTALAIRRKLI

[4] = target: T4, MBP-TraR G153E, P33905
T4 chain: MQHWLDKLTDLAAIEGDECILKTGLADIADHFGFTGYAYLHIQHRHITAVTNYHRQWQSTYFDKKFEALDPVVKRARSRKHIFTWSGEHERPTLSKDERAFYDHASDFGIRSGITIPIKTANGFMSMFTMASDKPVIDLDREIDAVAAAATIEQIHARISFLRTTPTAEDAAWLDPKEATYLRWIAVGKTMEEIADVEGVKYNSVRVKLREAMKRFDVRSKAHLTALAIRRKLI

[5] = target: T5, MBP-TraR Q154A, P33905
T5 chain: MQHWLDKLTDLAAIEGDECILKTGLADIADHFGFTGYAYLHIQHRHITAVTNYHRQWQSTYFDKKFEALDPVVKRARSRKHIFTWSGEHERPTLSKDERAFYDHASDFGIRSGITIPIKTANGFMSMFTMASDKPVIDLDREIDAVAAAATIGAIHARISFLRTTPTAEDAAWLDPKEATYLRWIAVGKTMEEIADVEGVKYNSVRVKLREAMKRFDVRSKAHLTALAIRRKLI

[6] = target: T6, MBP-TraR Q154E, P33905
T6 chain: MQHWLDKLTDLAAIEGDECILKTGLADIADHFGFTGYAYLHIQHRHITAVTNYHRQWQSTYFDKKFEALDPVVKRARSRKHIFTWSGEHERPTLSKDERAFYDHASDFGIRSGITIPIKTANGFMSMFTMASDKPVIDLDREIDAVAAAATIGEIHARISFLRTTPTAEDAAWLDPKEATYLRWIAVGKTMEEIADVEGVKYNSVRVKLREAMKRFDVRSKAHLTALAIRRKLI

[7] = target: T7, MBP-TraR S160F, P33905
T7 chain: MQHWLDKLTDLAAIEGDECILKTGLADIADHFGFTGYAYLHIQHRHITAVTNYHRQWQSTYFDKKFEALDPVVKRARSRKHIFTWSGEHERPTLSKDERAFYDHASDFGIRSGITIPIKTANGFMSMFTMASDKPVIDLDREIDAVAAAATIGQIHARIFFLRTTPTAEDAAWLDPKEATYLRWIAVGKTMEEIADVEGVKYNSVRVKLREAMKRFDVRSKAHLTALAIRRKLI

[8] = target: T8, MBP-TraR V146A, P33905
T8 chain: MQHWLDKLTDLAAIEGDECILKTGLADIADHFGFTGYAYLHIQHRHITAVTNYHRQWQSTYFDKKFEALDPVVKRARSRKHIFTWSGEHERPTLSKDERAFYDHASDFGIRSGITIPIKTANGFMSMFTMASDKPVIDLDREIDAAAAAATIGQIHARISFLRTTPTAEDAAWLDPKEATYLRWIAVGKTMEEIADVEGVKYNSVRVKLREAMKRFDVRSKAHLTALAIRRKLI

B1: native TraR (wild type) (protein)
chain: MQHWLDKLTDLAAIEGDECILKTGLADIADHFGFTGYAYLHIQHRHITAVTNYHRQWQSTYFDKKFEALDPVVKRARSRKHIFTWSGEHERPTLSKDERAFYDHASDFGIRSGITIPIKTANGFMSMFTMASDKPVIDLDREIDAVAAAATIGQIHARISFLRTTPTAEDAAWLDPKEATYLRWIAVGKTMEEIADVEGVKYNSVRVKLREAMKRFDVRSKAHLTALAIRRKLI
heterodimer formation (% of wild type) (% of wild type) [1]: 15 | heterodimer formation (% of wild type) (% of wild type) [2]: 49 | heterodimer formation (% of wild type) (% of wild type) [3]: 61 | heterodimer formation (% of wild type) (% of wild type) [4]: 19 | heterodimer formation (% of wild type) (% of wild type) [5]: 27 | heterodimer formation (% of wild type) (% of wild type) [6]: 25 | heterodimer formation (% of wild type) (% of wild type) [7]: 69 | heterodimer formation (% of wild type) (% of wild type) [8]: 61
